Test results from patent publication US20240092919A1 (Ablynx, published 2024).

T1: Human T cell receptor on human primary T cells (human, UniProt P01848 1-140; P01850 1-176)
T1 TCR alpha (looked up): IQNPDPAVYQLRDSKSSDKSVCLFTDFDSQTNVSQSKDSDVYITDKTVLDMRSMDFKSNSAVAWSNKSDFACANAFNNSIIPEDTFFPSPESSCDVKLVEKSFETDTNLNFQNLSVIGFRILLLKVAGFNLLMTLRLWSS
T1 TCR beta (looked up): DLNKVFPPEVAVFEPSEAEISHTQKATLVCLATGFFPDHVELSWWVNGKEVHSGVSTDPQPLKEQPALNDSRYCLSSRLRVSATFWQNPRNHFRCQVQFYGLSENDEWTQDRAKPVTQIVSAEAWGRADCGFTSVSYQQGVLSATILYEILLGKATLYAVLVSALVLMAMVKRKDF

T2: Cynomolgus TCR(AEA41865/AEA41866)-zipper protein (cynomolgus monkey)
T2 construct: also called cyTCR-zipper protein; cynoTCR zipper
T2 TCR alpha: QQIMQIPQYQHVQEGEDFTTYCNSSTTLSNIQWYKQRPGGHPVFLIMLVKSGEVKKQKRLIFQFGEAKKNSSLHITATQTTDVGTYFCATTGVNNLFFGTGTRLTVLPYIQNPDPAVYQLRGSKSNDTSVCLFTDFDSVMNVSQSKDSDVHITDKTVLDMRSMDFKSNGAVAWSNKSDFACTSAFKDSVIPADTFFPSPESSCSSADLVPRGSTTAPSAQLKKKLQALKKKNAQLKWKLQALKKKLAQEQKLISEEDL
T2 TCR beta: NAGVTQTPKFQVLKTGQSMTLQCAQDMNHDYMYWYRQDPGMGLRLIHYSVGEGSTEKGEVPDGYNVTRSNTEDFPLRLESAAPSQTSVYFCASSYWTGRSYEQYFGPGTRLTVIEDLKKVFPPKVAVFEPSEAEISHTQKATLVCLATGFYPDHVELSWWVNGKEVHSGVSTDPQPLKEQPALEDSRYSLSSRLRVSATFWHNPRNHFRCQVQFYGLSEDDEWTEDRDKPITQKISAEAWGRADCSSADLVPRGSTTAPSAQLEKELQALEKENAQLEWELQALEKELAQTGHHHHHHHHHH

B1: T017000628 (bispecific antibody)
chain: DVQLVESGGGVVQPGGSLRLSCVASYDVHKINFYGWYRQAPGKEREKVAHISIGDQTDYADSAKGRFTISRDESKNTVYLQMNSLRPEDTALYYCRALSKIWPYDYWGQGTLVTVSSGGGGSGGGGSGGGGSGGGGSGGGGSGGGGSGGGGSEVQLVESGGGLVQAGGSLRLSCAASGITSKINDMGWYRQTPGNYREWVASITATGTTNYRDSVKGRFTISRDNAKSTVYLQMNSLKPEDTTVYYCNTFPPISNFWGQGTLVTVSSA
B2: T017000538 (VHH)
VHH: EVQLVESGGGVVQPGGSLRLSCVASGYVHKLNFYGWYRQAPGKEREKVAHISIGDQTDYADSAKGRFTISRDESKNMVYLQMNSLRPEDTALYFCRAMSRIWPYDYWGQGTLVTVSS
B3: T017000766 (VHH)
VHH: EVQLVESGGGVVQPGGSLRLSCVASGYVHKINFYGWYRQAPGKEREKVAHISIGDQTDYADSAKGRFTISRDESKNMVYLQMNSLRPEDTALYFCRAMSKIYPYDYWGQGTLVTVSS
B4: T017000589 (VHH)
VHH: EVQLVESGGGVVQPGGSLRLSCVASGYVHKLNFYGWYRQAPGKEREKVAHISIGDQTDYADSAKGRFTISRDESKNMVYLQMNSLRPEDTALYFCRAMSRIWPYDWWGQGTLVTVSS
B5: T017000607 (VHH)
VHH: EVQLVESGGGVVQPGGSLRLSCVASWDVHQINFYGWYRQAPGKEREKVAHISIGDQTDYADSAKGRFTISRDESKNMVYLQMNSLRPEDTALYFCRAFSKIWPYDYWGQGTLVTVSS
B6: T017000740 (VHH)
VHH: EVQLVESGGGVVQPGGSLRLSCVASWDVHQLNFYGWYRQAPGKEREKVAHISIGDQTDYADSAKGRFTISRDESKNMVYLQMNSLRPEDTALYFCRAMSKIYPYDYWGQGTLVTVSS
B7: T017000776 (VHH)
VHH: EVQLVESGGGVVQPGGSLRLSCVASWSVHQINFYGWYRQAPGKEREKVAHISIGDQTDYADSAKGRFTISRDESKNMVYLQMNSLRPEDTALYFCRAMSKIWPYDYWGQGTLVTVSS
B8: T017000547 (VHH)
VHH: EVQLVESGGGVVQPGGSLRLSCVASGAVHKLNFYGWYRQAPGKEREKVAHISIGDQTDYADSAKGRFTISRDESKNMVYLQMNSLRPEDTALYFCRAFSRIWPYDYWGQGTLVTVSS
B9: T017000774 (VHH)
VHH: EVQLVESGGGVVQPGGSLRLSCVASGDVHQINFYGWYRQAPGKEREKVAHISIGDQTDYADSAKGRFTISRDESKNMVYLQMNSLRPEDTALYFCRAMSKIWPYDYWGQGTLVTVSS
B10: T017000578 (VHH)
VHH: EVQLVESGGGVVQPGGSLRLSCVASYDVHQLNFYGWYRQAPGKEREKVAHISIGDQTDYADSAKGRFTISRDESKNMVYLQMNSLRPEDTALYFCRAMSRIWPYDYWGQGTLVTVSS
B11: T017000610 (VHH)
VHH: EVQLVESGGGVVQPGGSLRLSCVASGDVHQINFLGWYRQAPGKEREKVAHISIGDQTDYADSAKGRFTISRDESKNMVYLQMNSLRPEDTALYFCRALSKIYPYDYWGQGTLVTVSS
B12: T017000539 (VHH)
VHH: EVQLVESGGGVVQPGGSLRLSCVASGYVHKINFYGWYRQAPGKEREKVAHISIGDQTDYADSAKGRFTISRDESKNMVYLQMNSLRPEDTALYFCRAMSRIWPYDWWGQGTLVTVSS
B13: T017000759 (VHH)
VHH: EVQLVESGGGVVQPGGSLRLSCVASGSVHKINFYGWYRQAPGKEREKVAHISIGDQTDYADSAKGRFTISRDESKNMVYLQMNSLRPEDTALYFCRAFSKIWPYDWWGQGTLVTVSS
B14: T017000609 (VHH)
VHH: EVQLVESGGGVVQPGGSLRLSCVASGDVHQINFLGWYRQAPGKEREKVAHISIGDQTDYADSAKGRFTISRDESKNMVYLQMNSLRPEDTALYFCRAFSKIYPYDYWGQGTLVTVSS
B15: T017000757 (VHH)
VHH: EVQLVESGGGVVQPGGSLRLSCVASGAVHKLNFLGWYRQAPGKEREKVAHISIGDQTDYADSAKGRFTISRDESKNMVYLQMNSLRPEDTALYFCRAFSKIWPYDWWGQGTLVTVSS
B16: T017000550 (VHH)
VHH: EVQLVESGGGVVQPGGSLRLSCVASGSVHQINFLGWYRQAPGKEREKVAHISIGDQTDYADSAKGRFTISRDESKNMVYLQMNSLRPEDTALYFCRAMSRIYPYDWWGQGTLVTVSS
B17: T017000742 (VHH)
VHH: EVQLVESGGGVVQPGGSLRLSCVASGYVHQINFYGWYRQAPGKEREKVAHISIGDQTDYADSAKGRFTISRDESKNMVYLQMNSLRPEDTALYFCRAMSRIWPYDWWGQGTLVTVSS
B18: T017000566 (VHH)
VHH: EVQLVESGGGVVQPGGSLRLSCVASGYVHKLNFLGWYRQAPGKEREKVAHISIGDQTDYADSAKGRFTISRDESKNMVYLQMNSLRPEDTALYFCRAMSRIWPYDWWGQGTLVTVSS
B19: T017000614 (VHH)
VHH: EVQLVESGGGVVQPGGSLRLSCVASGYVHKINFYGWYRQAPGKEREKVAHISIGDQTDYADSAKGRFTISRDESKNMVYLQMNSLRPEDTALYFCRALSRIWPYDYWGQGTLVTVSS
B20: T017000754 (VHH)
VHH: EVQLVESGGGVVQPGGSLRLSCVASGYVHQINFLGWYRQAPGKEREKVAHISIGDQTDYADSAKGRFTISRDESKNMVYLQMNSLRPEDTALYFCRAMSKIWPYDYWGQGTLVTVSS
B21: T017000608 (VHH)
VHH: EVQLVESGGGVVQPGGSLRLSCVASWDVHKINFYGWYRQAPGKEREKVAHISIGDQTDYADSAKGRFTISRDESKNMVYLQMNSLRPEDTALYFCRAFSKIWPYDYWGQGTLVTVSS
B22: T017000554 (VHH)
VHH: EVQLVESGGGVVQPGGSLRLSCVASYDVHQINFLGWYRQAPGKEREKVAHISIGDQTDYADSAKGRFTISRDESKNMVYLQMNSLRPEDTALYFCRAMSKIYPYDYWGQGTLVTVSS
B23: T017000750 (VHH)
VHH: EVQLVESGGGVVQPGGSLRLSCVASYAVHQINFYGWYRQAPGKEREKVAHISIGDQTDYADSAKGRFTISRDESKNMVYLQMNSLRPEDTALYFCRAMSRIWPYDYWGQGTLVTVSS
B24: T017000611 (VHH)
VHH: EVQLVESGGGVVQPGGSLRLSCVASGDVHQINFYGWYRQAPGKEREKVAHISIGDQTDYADSAKGRFTISRDESKNMVYLQMNSLRPEDTALYFCRAFSKIYPYDYWGQGTLVTVSS
B25: T017000612 (VHH)
VHH: EVQLVESGGGVVQPGGSLRLSCVASGDVHQLNFLGWYRQAPGKEREKVAHISIGDQTDYADSAKGRFTISRDESKNMVYLQMNSLRPEDTALYFCRALSKIYPYDYWGQGTLVTVSS
B26: T017000577 (VHH)
VHH: EVQLVESGGGVVQPGGSLRLSCVASWDVHQINFLGWYRQAPGKEREKVAHISIGDQTDYADSAKGRFTISRDESKNMVYLQMNSLRPEDTALYFCRAMSRIYPYDYWGQGTLVTVSS
B27: T017000588 (VHH)
VHH: EVQLVESGGGVVQPGGSLRLSCVASGAVHKINFYGWYRQAPGKEREKVAHISIGDQTDYADSAKGRFTISRDESKNMVYLQMNSLRPEDTALYFCRAMSKIWPYDYWGQGTLVTVSS
B28: T017000593 (VHH)
VHH: EVQLVESGGGVVQPGGSLRLSCVASGAVHKLNFYGWYRQAPGKEREKVAHISIGDQTDYADSAKGRFTISRDESKNMVYLQMNSLRPEDTALYFCRAMSKIWPYDYWGQGTLVTVSS

Molecular target: T1, Human T cell receptor on human primary …
Experiment: cell-based or functional assay
Throughout, for % Lysis, T cell mediated MOLM-13 cell killing, human primary T cells, E:T 10:1: test concentration or dose not given here.

**Q.** What does the source list for B1?
**A.** % Lysis, T cell mediated MOLM-13 cell killing, human primary T cells, E:T 10:1: 39%; EC50 (M), T cell mediated MOLM-13 cell killing, human primary T cells, E:T 10:1: 1.6e-10 M

molecular target: Cynomolgus T cell receptor on cynomolgus primary T cells (cynomolgus monkey); experiment: cell-based or functional assay; for % Lysis, T cell mediated MOLM-13 cell killing, cynomolgus primary T cells, E:T 10:1: test concentration or dose not given here

**Q.** B1 was tested. Which “% Lysis, T cell mediated MOLM-13 cell killing, cynomolgus primary T cells, E:T 10:1” value did it give?
**A.** 40%

**Q.** What about the “EC50 (M), T cell mediated MOLM-13 cell killing, cynomolgus primary T cells, E:T 10:1” value of the same binder?
**A.** 2e-11 M

Molecular target: T2, Cynomolgus …
Experiment: SPR ProteOn off-rate screen
Excerpt: Unique ISVD clones, i.e. clones with a unique sequence, were subsequently selected and screened to determine their off-rate. To this purpose, the ISVD containing periplasmic extracts were screened on huTCR-zipper and cyTCR-zipper protein by SPR on a ProteOn XPR36 instrument. The zipper proteins were immobilized on a GLC sensor chip (between 4300 and 5100RU) via amine coupling chemistry, using EDC/sulfo-NHS for activation of the carboxyl groups on the chip surface (running buffer: HBS-EP+, pH7.4). Periplasmic extracts were injected at 1/10 dilution for 2 min (at a flow rate of 45 μL/min) and dissociation was followed for 900 s. A pulse of 100 s of 3 M MgCl2 at 45 μL/min was used for regeneration. […] Processed sensorgrams were fitted with the Langmuir model (1:1 interaction) using ProteOn Manager 3.1.0 (Version 3.1.0.6) software.

**Q.** For B2, which koff is on record?
**A.** 0.000766 s⁻¹

**Q.** B3 was tested. Which koff did it give?
**A.** 0.000239 s⁻¹

**Q.** How did the koff turn out when B4 was run?
**A.** 0.00115 s⁻¹

**Q.** How did the koff turn out when B5 was run?
**A.** 0.000316 s⁻¹

**Q.** How did the koff turn out when B6 was run?
**A.** 0.000391 s⁻¹

**Q.** With B7 as the binder, how does the koff read?
**A.** 0.000525 s⁻¹

**Q.** How did the koff turn out when B8 was run?
**A.** 0.00156 s⁻¹

**Q.** How did the koff turn out when B9 was run?
**A.** 0.000431 s⁻¹

**Q.** For B10, which koff is on record?
**A.** 0.00349 s⁻¹

**Q.** For B11, which koff is on record?
**A.** 0.000857 s⁻¹

**Q.** How did the koff turn out when B12 was run?
**A.** 0.00151 s⁻¹

**Q.** How did the koff turn out when B13 was run?
**A.** 0.00101 s⁻¹

**Q.** For B14, which koff is on record?
**A.** 0.00114 s⁻¹

**Q.** With B15 as the binder, how does the koff read?
**A.** 0.000603 s⁻¹

**Q.** How did the koff turn out when B16 was run?
**A.** 0.0095 s⁻¹

**Q.** How did the koff turn out when B17 was run?
**A.** 0.00391 s⁻¹

**Q.** For B18, which koff is on record?
**A.** 0.00164 s⁻¹

**Q.** How did the koff turn out when B19 was run?
**A.** 0.00116 s⁻¹

**Q.** B20 was tested. Which koff did it give?
**A.** 0.000237 s⁻¹

**Q.** B21 was tested. Which koff did it give?
**A.** 0.000472 s⁻¹

**Q.** B22 was tested. Which koff did it give?
**A.** 0.000767 s⁻¹

**Q.** With B23 as the binder, how does the koff read?
**A.** 0.00373 s⁻¹

**Q.** With B24 as the binder, how does the koff read?
**A.** 0.00171 s⁻¹

**Q.** Which koff does the source give for B25 here?
**A.** 0.00105 s⁻¹

**Q.** Which koff does the source give for B26 here?
**A.** 0.00188 s⁻¹

**Q.** Which koff does the source give for B27 here?
**A.** 0.000158 s⁻¹

**Q.** Which koff does the source give for B28 here?
**A.** 0.00019 s⁻¹
